Reference: patent US20260152552A1 (CURON BIOPHARMACEUTICAL SHANGHAI, published 2026)

Molecular target: T1, human L1CAM (L1 cell adhesion molecule), endogenously expressed on the surface of HeLa cells (human, UniProt P32004 20-1257)
T1 construct: whole, on cells; also called CD171
Assay: flow cytometry on HeLa cells (endogenous human L1CAM)
Description: The experimental principle is as follows: HeLa cells express high levels of L1CAM protein on their surface. After incubating humanized L1CAM antibodies with the cells, the binding ability of the antibodies to L1CAM on the surface of HeLa cells can be determined by flow cytometry. The experimental method is descripted as following: Humanized L1CAM antibodies (Human IgG1-Kappa) are diluted in complete medium in a four-fold serial dilution, with seven concentration gradient points. HeLa cells are cultured in DMEM complete medium (Corning, 10-013-CVR) containing 10% FBS (Gibco, 10099-141) and 100 U/mL penicillin mixture (Thermofisher, 15140122). When the cell coverage in the culture container reaches 80-90%, TrypLE (Thermofisher, 12604-013) is used to digest the HeLa cells from the culture container, and they are seeded in a 96-well plate (AXYGEN, P-96-450V-C) at a density of 2.2×10⁶ cells/ml, with 100,000 cells (45 μL complete medium) per well. Then, 5 μL of the antibody dilution is added to each well, gently mixed, and the 96-well plate is incubated at 4° C. for 1 hour. Then, 150 μL of PBS solution containing 2% FBS (Corning, 21-040-CVC) is added to each well, centrifuged at 1400 rpm for 4 minutes, the supernatant is removed, and the wells are washed once more. Then, 50 μL of Alexa Flour 647-labeled goat anti-human fluorescent secondary antibody (Jacksonimmuno, 109-605-088) diluted 1:800 is added to each well, and the 96-well plate is incubated at 4° C. for 0.5 hours. The cells are washed twice with PBS solution containing 2% FBS, then resuspended in 120 μL of PBS, and the cell surface fluorescence signal is detected using a flow cytometer (BD FACS Celesta), obtaining the median fluorescence intensity (MFI). A dose-response curve is generated, and the half-maximal effective concentration (EC50) is calculated using non-linear regression with GraphPad software.

T1 sequence (P32004 20-1257): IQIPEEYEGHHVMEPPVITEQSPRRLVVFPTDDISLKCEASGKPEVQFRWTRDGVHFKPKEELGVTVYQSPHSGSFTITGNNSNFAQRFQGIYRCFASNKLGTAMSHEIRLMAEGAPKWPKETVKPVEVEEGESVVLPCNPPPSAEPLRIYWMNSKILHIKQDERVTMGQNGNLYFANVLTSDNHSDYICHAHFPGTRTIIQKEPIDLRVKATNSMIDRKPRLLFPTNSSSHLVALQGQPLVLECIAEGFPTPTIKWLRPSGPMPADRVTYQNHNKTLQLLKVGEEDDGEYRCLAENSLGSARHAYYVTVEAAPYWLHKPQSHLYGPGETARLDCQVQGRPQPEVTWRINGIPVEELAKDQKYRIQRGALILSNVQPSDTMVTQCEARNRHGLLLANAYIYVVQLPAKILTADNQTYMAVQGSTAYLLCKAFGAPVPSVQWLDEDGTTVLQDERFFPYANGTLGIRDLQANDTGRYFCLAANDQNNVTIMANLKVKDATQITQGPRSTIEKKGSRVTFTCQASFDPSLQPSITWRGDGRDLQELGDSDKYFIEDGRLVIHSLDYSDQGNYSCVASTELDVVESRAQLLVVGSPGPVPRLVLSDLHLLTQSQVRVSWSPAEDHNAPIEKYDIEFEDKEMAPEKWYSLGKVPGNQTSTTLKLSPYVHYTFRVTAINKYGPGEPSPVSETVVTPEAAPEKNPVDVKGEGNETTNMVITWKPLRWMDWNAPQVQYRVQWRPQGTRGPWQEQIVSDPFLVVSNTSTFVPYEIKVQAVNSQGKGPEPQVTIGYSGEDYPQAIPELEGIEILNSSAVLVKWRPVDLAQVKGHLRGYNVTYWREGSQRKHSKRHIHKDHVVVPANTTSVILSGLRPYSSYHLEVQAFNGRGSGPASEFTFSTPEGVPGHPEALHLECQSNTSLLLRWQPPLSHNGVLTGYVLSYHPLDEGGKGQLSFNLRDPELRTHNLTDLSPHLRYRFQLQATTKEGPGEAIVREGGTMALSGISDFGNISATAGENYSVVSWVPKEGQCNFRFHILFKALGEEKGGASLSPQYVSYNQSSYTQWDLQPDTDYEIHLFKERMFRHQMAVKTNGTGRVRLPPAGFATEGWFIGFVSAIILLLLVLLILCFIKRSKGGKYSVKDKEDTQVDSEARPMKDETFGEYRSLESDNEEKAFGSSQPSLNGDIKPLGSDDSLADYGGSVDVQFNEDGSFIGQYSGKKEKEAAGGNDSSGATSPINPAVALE

EC50 [pM] | Binder
2330 | humanized anti-L1CAM antibody hz26A12C1H3L2 (antibody, V domains shown) VH: QVQLVQSGAEVKKPGSSVKVSCKASGYTFTNYWIQWVRQAPGQGLEWIGYINPSTYYSDYAQKFQGRVTLTADESTSTAYMELSSLRSEDTAVYYCARRQFGLPLFDYWGQGTTVTVSS VL: DIQMTQSPSSLSASVGDRVTITCRASQDVGTAVAWYQQKPGKVPKLLIYWASTLHSGVPSRFSGSGSGTDFTLTISSLQPEDVATYYCQQYSNYPLTFGGGTKVEIK
24700 | humanized anti-L1CAM antibody hz26A12C1H2L1 (antibody, V domains shown) VH: QVQLVQSGAEVKKPGSSVKVSCKASGYTFTNYWIQWVRQAPGQGLEWMGYINPSTYYSDYAQKFQGRVTITADESTSTAYMELSSLRSEDTAVYYCARRQFGLPLFDYWGQGTTVTVSS VL: DIQMTQSPSSLSASVGDRVTITCRASQDVGTALAWYQQKPGKVPKLLIYWASTLQSGVPSRFSGSGSGTDFTLTISSLQPEDVATYYCQQYSNYPLTFGGGTKVEIK
7820 | humanized anti-L1CAM antibody hz26A12C1H2L2 (antibody, V domains shown) VH: QVQLVQSGAEVKKPGSSVKVSCKASGYTFTNYWIQWVRQAPGQGLEWMGYINPSTYYSDYAQKFQGRVTITADESTSTAYMELSSLRSEDTAVYYCARRQFGLPLFDYWGQGTTVTVSS VL: DIQMTQSPSSLSASVGDRVTITCRASQDVGTAVAWYQQKPGKVPKLLIYWASTLHSGVPSRFSGSGSGTDFTLTISSLQPEDVATYYCQQYSNYPLTFGGGTKVEIK
853 | humanized anti-L1CAM antibody hz26A12C1H2L3 (antibody, V domains shown) VH: QVQLVQSGAEVKKPGSSVKVSCKASGYTFTNYWIQWVRQAPGQGLEWMGYINPSTYYSDYAQKFQGRVTITADESTSTAYMELSSLRSEDTAVYYCARRQFGLPLFDYWGQGTTVTVSS VL: DIQMTQSPSSLSASVGDRVTITCRASQDVGTAVAWYQQKPGKVPKLLIYWASTLHSGVPSRFSGSGSGTDFTLTISSLQPEDVATYFCQQYSNYPLTFGGGTKVEIK
2990 | humanized anti-L1CAM antibody hz26A12C1H3L1 (antibody, V domains shown) VH: QVQLVQSGAEVKKPGSSVKVSCKASGYTFTNYWIQWVRQAPGQGLEWIGYINPSTYYSDYAQKFQGRVTLTADESTSTAYMELSSLRSEDTAVYYCARRQFGLPLFDYWGQGTTVTVSS VL: DIQMTQSPSSLSASVGDRVTITCRASQDVGTALAWYQQKPGKVPKLLIYWASTLQSGVPSRFSGSGSGTDFTLTISSLQPEDVATYYCQQYSNYPLTFGGGTKVEIK
838 | humanized anti-L1CAM antibody hz26A12C1H3L3 (antibody, V domains shown) VH: QVQLVQSGAEVKKPGSSVKVSCKASGYTFTNYWIQWVRQAPGQGLEWIGYINPSTYYSDYAQKFQGRVTLTADESTSTAYMELSSLRSEDTAVYYCARRQFGLPLFDYWGQGTTVTVSS VL: DIQMTQSPSSLSASVGDRVTITCRASQDVGTAVAWYQQKPGKVPKLLIYWASTLHSGVPSRFSGSGSGTDFTLTISSLQPEDVATYFCQQYSNYPLTFGGGTKVEIK
646 | humanized anti-L1CAM antibody hz26A12C1H4L1 (antibody, V domains shown) VH: QVQLVQSGAEVKKPGSSVKVSCKASGYTFTNYWIQWVRQAPGQGLEWIGYINPSTYYSDYNQKFQGRVTLTADKSTSTAYMELSSLRSEDTAVYYCARRQFGLPLFDYWGQGTTVTVSS VL: DIQMTQSPSSLSASVGDRVTITCRASQDVGTALAWYQQKPGKVPKLLIYWASTLQSGVPSRFSGSGSGTDFTLTISSLQPEDVATYYCQQYSNYPLTFGGGTKVEIK
562 | humanized anti-L1CAM antibody hz26A12C1H4L2 (antibody, V domains shown) VH: QVQLVQSGAEVKKPGSSVKVSCKASGYTFTNYWIQWVRQAPGQGLEWIGYINPSTYYSDYNQKFQGRVTLTADKSTSTAYMELSSLRSEDTAVYYCARRQFGLPLFDYWGQGTTVTVSS VL: DIQMTQSPSSLSASVGDRVTITCRASQDVGTAVAWYQQKPGKVPKLLIYWASTLHSGVPSRFSGSGSGTDFTLTISSLQPEDVATYYCQQYSNYPLTFGGGTKVEIK
738 | humanized anti-L1CAM antibody hz26A12C1H4L3 (antibody, V domains shown) VH: QVQLVQSGAEVKKPGSSVKVSCKASGYTFTNYWIQWVRQAPGQGLEWIGYINPSTYYSDYNQKFQGRVTLTADKSTSTAYMELSSLRSEDTAVYYCARRQFGLPLFDYWGQGTTVTVSS VL: DIQMTQSPSSLSASVGDRVTITCRASQDVGTAVAWYQQKPGKVPKLLIYWASTLHSGVPSRFSGSGSGTDFTLTISSLQPEDVATYFCQQYSNYPLTFGGGTKVEIK
1050 | humanized anti-L1CAM antibody hz49E10H1H7L6 (antibody, V domains shown) VH: QVQLQESGPGLVKPSQTLSLTCTVSGGSISSDYAWNWIRQPPGKGLEWMGYITYSGTTTYNPSLKSRITISRDTSKNQFSLKLSSVTAADTAVYYCTLDHYGNYAYFDYWGQGTTVTVSS VL: DIQMTQSPSSLSASVGDRVTITCRASSSVSFMHWYQQKPGKAPKPWIYASSNLVSGVPSRFSGSGSGTDFTLTISSLQPEDFATYYCQQWSSNPSTFGGGTKVEIK
2150 | humanized anti-L1CAM antibody hz49E10H1H4L5 (antibody, V domains shown) VH: QVQLQESGPGLVKPSQTLSLTCTVSGGSISSDYAWNWIRQPPGKGLEWIGYITYSGTTTYNPSLKSRVTISVDTSKNQFSLKLSSVTAADTAVYYCARDHYGNYAYFDYWGQGTTVTVSS VL: DIQMTQSPSSLSASVGDRVTITCRASSSVSFMHWYQQKPGKAPKLLIYASSNLVSGVPSRFSGSGSGTDFTLTISSLQPEDFATYYCQQWSSNPSTFGGGTKVEIK
853 | humanized anti-L1CAM antibody hz49E10H1H4L6 (antibody, V domains shown) VH: QVQLQESGPGLVKPSQTLSLTCTVSGGSISSDYAWNWIRQPPGKGLEWIGYITYSGTTTYNPSLKSRVTISVDTSKNQFSLKLSSVTAADTAVYYCARDHYGNYAYFDYWGQGTTVTVSS VL: DIQMTQSPSSLSASVGDRVTITCRASSSVSFMHWYQQKPGKAPKPWIYASSNLVSGVPSRFSGSGSGTDFTLTISSLQPEDFATYYCQQWSSNPSTFGGGTKVEIK
676 | humanized anti-L1CAM antibody hz49E10H1H4L7 (antibody, V domains shown) VH: QVQLQESGPGLVKPSQTLSLTCTVSGGSISSDYAWNWIRQPPGKGLEWIGYITYSGTTTYNPSLKSRVTISVDTSKNQFSLKLSSVTAADTAVYYCARDHYGNYAYFDYWGQGTTVTVSS VL: QIQMTQSPSSLSASVGDRVTITCRASSSVSFMHWYQQKPGKAPKPWIYASSNLVSGVPSRFSGSGSGTDYTLTISSLQPEDFATYYCQQWSSNPSTFGGGTKVEIK
633 | humanized anti-L1CAM antibody hz49E10H1H5L5 (antibody, V domains shown) VH: DVQLQESGPGLVKPSQTLSLTCTVSGGSISSDYAWNWIRQPPGKGLEWMGYITYSGTTTYNPSLKSRITISRDTSKNQFSLKLSSVTAADTAVYYCARDHYGNYAYFDYWGQGTTVTVSS VL: DIQMTQSPSSLSASVGDRVTITCRASSSVSFMHWYQQKPGKAPKLLIYASSNLVSGVPSRFSGSGSGTDFTLTISSLQPEDFATYYCQQWSSNPSTFGGGTKVEIK
404 | humanized anti-L1CAM antibody hz49E10H1H5L6 (antibody, V domains shown) VH: DVQLQESGPGLVKPSQTLSLTCTVSGGSISSDYAWNWIRQPPGKGLEWMGYITYSGTTTYNPSLKSRITISRDTSKNQFSLKLSSVTAADTAVYYCARDHYGNYAYFDYWGQGTTVTVSS VL: DIQMTQSPSSLSASVGDRVTITCRASSSVSFMHWYQQKPGKAPKPWIYASSNLVSGVPSRFSGSGSGTDFTLTISSLQPEDFATYYCQQWSSNPSTFGGGTKVEIK
377 | humanized anti-L1CAM antibody hz49E10H1H5L7 (antibody, V domains shown) VH: DVQLQESGPGLVKPSQTLSLTCTVSGGSISSDYAWNWIRQPPGKGLEWMGYITYSGTTTYNPSLKSRITISRDTSKNQFSLKLSSVTAADTAVYYCARDHYGNYAYFDYWGQGTTVTVSS VL: QIQMTQSPSSLSASVGDRVTITCRASSSVSFMHWYQQKPGKAPKPWIYASSNLVSGVPSRFSGSGSGTDYTLTISSLQPEDFATYYCQQWSSNPSTFGGGTKVEIK
24300 | humanized anti-L1CAM antibody hz49E10H1H6L5 (antibody, V domains shown) VH: DVQLQESGPGLVKPSQTLSLTCTVSGGSISSDYAWNWIRQPPGKGLEWIGYITYSGTTTYNPSLKSRVTISRDTSKNQFSLKLSSVTAADTAVYYCTLDHYGNYAYFDYWGQGTTVTVSS VL: DIQMTQSPSSLSASVGDRVTITCRASSSVSFMHWYQQKPGKAPKLLIYASSNLVSGVPSRFSGSGSGTDFTLTISSLQPEDFATYYCQQWSSNPSTFGGGTKVEIK
1030 | humanized anti-L1CAM antibody hz49E10H1H6L6 (antibody, V domains shown) VH: DVQLQESGPGLVKPSQTLSLTCTVSGGSISSDYAWNWIRQPPGKGLEWIGYITYSGTTTYNPSLKSRVTISRDTSKNQFSLKLSSVTAADTAVYYCTLDHYGNYAYFDYWGQGTTVTVSS VL: DIQMTQSPSSLSASVGDRVTITCRASSSVSFMHWYQQKPGKAPKPWIYASSNLVSGVPSRFSGSGSGTDFTLTISSLQPEDFATYYCQQWSSNPSTFGGGTKVEIK
996 | humanized anti-L1CAM antibody hz49E10H1H6L7 (antibody, V domains shown) VH: DVQLQESGPGLVKPSQTLSLTCTVSGGSISSDYAWNWIRQPPGKGLEWIGYITYSGTTTYNPSLKSRVTISRDTSKNQFSLKLSSVTAADTAVYYCTLDHYGNYAYFDYWGQGTTVTVSS VL: QIQMTQSPSSLSASVGDRVTITCRASSSVSFMHWYQQKPGKAPKPWIYASSNLVSGVPSRFSGSGSGTDYTLTISSLQPEDFATYYCQQWSSNPSTFGGGTKVEIK
